# T1: recombinant human GDF-15 (Homo sapiens, UniProt Q99988)
# T1 sequence (Q99988 with tags, fused parts or gaps): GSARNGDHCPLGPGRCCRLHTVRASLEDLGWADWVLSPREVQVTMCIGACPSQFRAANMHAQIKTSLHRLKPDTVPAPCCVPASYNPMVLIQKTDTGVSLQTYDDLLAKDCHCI
# Legend:
# [1] = biological target: human Interleukin-5 (Homo sapiens, UniProt P05113); test: Surface plasmon resonance control flow cell with human Interleukin-5; format: binding; settings: SPR, same coupling density
# [2] = test system: GDF-15 mediated AKT-phosphorylation in ovarian cancer cell line SK-OV-3; test: Akt phosphorylation in SK-OV-3 cells (Western Blot); format: cell-based; settings: 2 μg antibody preincubated 5 minutes with 10 ng/ml GDF-15 at 37° C.
# Procedure: FIG. 2: Akt Phosphorylation in the Ovarian Carcinoma Cell Line SK-OV-3. In order to quantify the Western Blot for the ovarian carcinoma cell line SK-OV-3, the ratio of phosphorylated Akt to the total amount of Akt was calculated and normalized to the untreated control.
# b) The treatment of the ovarian cancer cell line SK-OV-3 with recombinant GDF-15 led to the phosphorylation of AKT. AKT is a molecule, which is part of the PI3K-pathway and contributes to the activation and proliferation of cells. In this experiment SK-OV-3 cells were treated with 10 ng/ml recombinant GDF-15 for 10 min at 37° C., 5% CO2. 5 minutes preincubation of 2 μg mAb-B1-23 with 10 ng/ml GDF-15 at 37° C. blocked the GDF-15 mediated AKT-phosphorylation (FIG. 2).
# [3] = test system: GDF-15 mediated JNK1/2-phosphorylation in immune cells; test: JNK1/2 phosphorylation in immune cells (Western Blot); format: cell-based; settings: 2 μg antibody, 10 ng/ml GDF-15, 5 minute preincubation
# Procedure: FIG. 3: JNK1/2 Phosphorylation in Immune Cells. In order to quantify the Western Blot, the ratio of phosphorylated JNK1/2 to the total amount of JNK was calculated and normalized to the untreated control.
# c) Treatment of immune cells with recombinant. GDF-15 led to the phosphorylation of JNK, a kinase, which is activated either by cytokines or by stress. Antagonization of 10 ng/ml GDF-15 with 2 μg mAb-B1-23 (5 minute preincubation at 37°) blocked the GDF-15 mediated JNK1/2-phosphorylation (FIG. 3).
# [4] = test system: 13 mer linear peptides derived from GDF-15; test: Epitope mapping on peptide array of 13 mer linear peptides derived from GDF-15; format: binding, human; settings: antibody dilution 1:100, overnight at 4° C.
# Procedure: Epitope Mapping: Monoclonal mouse antibody GDF-15 against 13 mer linear peptides derived from GDF-15
# The protein sequence was translated into 13 mer peptides with a shift of one amino acid. The C- and N-termini were elongated by a neutral GSGS linker to avoid truncated peptides (bold letters).
# Primary sample: Monoclonal mouse antibody GDF-15 (1 μg/μl):
# Staining in incubation buffer for 16 h at 4° C. at a dilution of 1:100 and slight shaking at 500 rpm
# Secondary antibody: Goat anti-mouse IgG (H+L) IRDye680, staining in incubation buffer with a dilution of 1:5000 for 30 min at room temperature (RT)
# After pre-swelling for 10 min in standard buffer, the peptide microarray was incubated overnight at 4° C. with monoclonal mouse antibody GDF-15 at a dilution of 1:100. Repeated washing in standard buffer (2×1 min) was followed by incubation for 30 min with the secondary antibody at a dilution of 1:5000 at room temperature. After 2×10 sec. washing in standard buffer and short rinsing with dist. water, the PEPperCHIP® was dried in a stream of air. Read-out was done with Odyssey® Imaging System at a resolution of 21 μm and green/red intensities of 7/7 before and after staining of control peptides by anti-HA and anti-FLAG(M2) antibodies.
# [5] = biological target: T1, recombinant human GDF-15; test: Mass spectrometric epitope excision; format: binding; settings: trypsin 2 h at 37° C., MS/MS identification
# Procedure: The epitope of recombinant human GDF-15 which binds to the antibody B1-23 was identified by means of the epitope excision method and epitope extraction method (Suckau et al. Proc Nati Acad Sci USA. 1990 December; 87(24): 9848-9852; R. Stefanescu et al., Eur. J. Mass Spectrom. 13, 69-75 (2007)).
# For preparation of the antibody column, the antibody B1-23 was added to NHS-activated 6-aminohexanoic acid coupled sepharose. The sepharose-coupled antibody B1-23 was then loaded into a 0.8 ml microcolumn and washed with blocking and washing buffers.
# The immobilized antibody B1-23 on the affinity column was then incubated with recombinant GDF-15 for 2 h. The formed immune complex on the affinity column was then incubated with trypsin for 2 h at 37° C. […] The immobilized antibody itself is proteolytically stable. The resulting peptides of the digested GDF-15 protein, which were shielded by the antibody and thus protected from proteolytic cleavage, were eluted under acidic conditions (TFA, pH2), collected and identified by mass spectrometry.
# [6] = Aggregation study: shaking 48 hours at room temperature, visual analysis for precipitates; format: physicochemical; settings: PBS, no stabilizing proteins for H1L5
# Procedure: In order to test the aggregation properties of anti-GDF-15 antibodies, antibody samples were shaken for 48 hours at room temperature in microcentrifuge tubes, and subsequently, the tubes were visually analyzed for aggregated antibody precipitates.
# Chain of human Interleukin-5 (P05113 20-134): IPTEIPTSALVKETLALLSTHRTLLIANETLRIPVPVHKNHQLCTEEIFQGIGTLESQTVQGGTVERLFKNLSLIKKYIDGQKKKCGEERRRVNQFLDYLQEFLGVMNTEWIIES
molecule,measurement,setting,value
"mAb-B1-23: murine IgG2a (kappa) monoclonal anti-human GDF-15 antibody produced by hybridoma cell line B1-23, DSM ACC3142 (antibody, V domains shown) VH: QVKLQQSGPGILQSSQTLSLTCSFSGFSLSTSGMGVSWIRQPSGKGLEWLAHIYWDDDKRYNPTLKSRLTISKDPSRNQVFLKITSVDTADTATYYCARSSYGAMDYWGQGTSVTVSS VL: DIVLTQSPKFMSTSVGDRVSVTCKASQNVGTNVAWFLQKPGQSPKALIYSASYRYSGVPDRFTGSGSGTDFTLTISNVQSEDLAEYFCQQYNNFPYTFGGGTKLEIKRTVA",binding to human interleukin-5,[1],no binding
same,GDF-15 mediated AKT-phosphorylation,[2],blocked
same,GDF-15 mediated JNK1/2-phosphorylation,[3],blocked
same,interaction with linear 13 mer peptides derived from GDF-15,[4],none of the linear 13 mer peptides derived from GDF-15 interacted
same,positions of GDF-15 peptides forming the immune complex (epitope),[5],40-55 ([…]) and 94-114 ([…])
same,tendency to aggregate,[6],can form aggregates

# Reference: patent publication US11760795B2, “Monoclonal antibodies to growth and differentiation factor 15 (GDF-15), and uses thereof for treating cancer cachexia and cancer” (JULIUS-MAXIMILIANS-UNIVERSITÄT WÜRZBURG, priority 2014, dated 2023)
